Reference: US20260193376A1 (Novo Nordisk, published 2026)
Where a chain is given by its changes, count along the chain named.

B1: one-armed (OA) mAb01-9986 (antibody, V domains shown)
VH: EVQLVESGGGLVQPGRSLRLSCAASGFTFHDYAMHWVRQVPGKGLEWVSGISWRGDIGGYVKSVKGRFTISRDNAKNSLYLQMNSLRAEDTALYYCVKSYGSGSFYNAFDSWGQGTLVTVSS
VL: DIQMTQSPSTLSASVGDRVTITCRASQSISSWLAWYQQKPGKAPKFLIYKASRLERGTPSRFSGSGSGTEFSLTISSLQPDDFATYYCLEYSSYIRTFGQGTKVEIK
B2: one-armed (OA) mAb11-0047 (antibody, V domains shown)
VH: B1 VH with V40A, G58K, K62D, M83L, V97A
VL: B1 VL with V15A, Q27K, E55D, S60Q
B3: one-armed (OA) mAb11-0049 (antibody, V domains shown)
VH: B1 VH with V40A, G58K, K62D, M83L, V97A
VL: B1 VL with V15A, T22S, F46L, E55D, S72T, S92N
B4: one-armed (OA) mAb11-0107 (antibody, V domains shown)
VH: B1 VH with R19K, M83L
VL: B1 VL with R18E, S52Q, E55D, S60Q, S72T
B5: one-armed (OA) mAb11-0149 (antibody, V domains shown)
VH: B1 VH with R19K, H30D, V40A, R54K, K62D
VL: B1 VL with V15A, R18E, S30K, E55D, S60Q, S77R
B6: one-armed (OA) mAb11-0160 (antibody, V domains shown)
VH: B1 VH with R19K, T28R, H30D, R54K, V61A, K62D, M83L
VL: B1 VL with R18E, Q27K, K45R, S60Q, S72T, S76Y
B7: one-armed (OA) mAb11-0164 (antibody, V domains shown)
VH: B1 VH with R19K, T28R, H30D, R54K, V61A, K62D, M83L
VL: B1 VL
B8: one-armed (OA) mAb11-0173 (antibody, V domains shown)
VH: B1 VH with V40A, R54K, K62D, V97A
VL: B1 VL with R53K, E55D, S72T
B9: one-armed (OA) mAb11-0174 (antibody, V domains shown)
VH: B1 VH with R19K, V40A, R54K, K62D, V97A
VL: B1 VL with R53K, E55D, S72T
B10: one-armed (OA) mAb11-0723 (antibody, V domains shown)
VH: B1 VH with R19K, H30D, R54K, K62D, M83L, V97A
VL: B1 VL with V15A, E55D
B11: one-armed (OA) mAb11-0923 (antibody, V domains shown)
VH: B1 VH with R54K, K62D, A75E
VL: B1 VL with E55D, T58C
B12: one-armed (OA) mAb11-0929 (antibody, V domains shown)
VH: B1 VH with R54K, K62D, A75E
VL: B1 VL with E55D, T58I
B13: one-armed (OA) mAb11-0931 (antibody, V domains shown)
VH: B1 VH with R54K, K62D, A75E
VL: B1 VL with E55D, T58L
B14: one-armed (OA) mAb11-0932 (antibody, V domains shown)
VH: B1 VH with R54K, K62D, A75E
VL: B1 VL with E55D, T58M
B15: one-armed (OA) mAb11-0933 (antibody, V domains shown)
VH: B1 VH with R54K, K62D, A75E
VL: B1 VL with E55D, T58N
B16: one-armed (OA) mAb11-0935 (antibody, V domains shown)
VH: B1 VH with R54K, K62D, A75E
VL: B1 VL with E55D, T58Q
B17: one-armed (OA) mAb11-0937 (antibody, V domains shown)
VH: B1 VH with R54K, K62D, A75E
VL: B1 VL with E55D, T58S
B18: one-armed (OA) mAb11-0938 (antibody, V domains shown)
VH: B1 VH with R54K, K62D, A75E
VL: B1 VL with E55D, T58V
B19: one-armed (OA) mAb11-0939 (antibody, V domains shown)
VH: B1 VH with R54K, K62D, A75E
VL: B1 VL with E55D, T58W
B20: one-armed (OA) mAb01-9016 (antibody, V domains shown)
VH: B1 VH with R19K, H30D, K62D, M83L
VL: B1 VL with V15A, T58V
B21: one-armed (OA) mAb11-0962 (antibody, V domains shown)
VH: B1 VH with G26K, V40A, R54K, V61A, K62D, V97A
VL: B1 VL with R53K, E55D, S72T
B22: one-armed (OA) mAb11-0965 (antibody, V domains shown)
VH: B1 VH with G26K, V40A, R54K, V61A, K62D, V97A
VL: B1 VL with R53K, S72T
B23: one-armed (OA) mAb11-1021 (antibody, V domains shown)
VH: B1 VH with G26K, V40A, R54K, K62D, V97A
VL: B1 VL with R53K, E55D, S72T
B24: one-armed (OA) mAb11-1024 (antibody, V domains shown)
VH: B1 VH with G26K, V40A, R54K, K62D, V97A
VL: B1 VL with R53K, S72T
B25: one-armed (OA) mAb11-1030 (antibody, V domains shown)
VH: B1 VH with G26K, R54K, K62D, V97A
VL: B1 VL with R53K, E55D, S72T
B26: one-armed (OA) mAb11-1033 (antibody, V domains shown)
VH: B1 VH with G26K, R54K, K62D, V97A
VL: B1 VL with R53K, S72T
B27: one-armed (OA) mAb11-1039 (antibody, V domains shown)
VH: B1 VH with R19K, G26K, V40A, R54K, K62D, V97A
VL: B1 VL with R53K, E55D, S72T
B28: one-armed (OA) mAb11-1042 (antibody, V domains shown)
VH: B1 VH with R19K, G26K, V40A, R54K, K62D, V97A
VL: B1 VL with R53K, S72T
B29: one-armed (OA) mAb11-1073 (antibody, V domains shown)
VH: B1 VH with R54K, K62D, V97A
VL: B1 VL with R53K, E55D, S72T
B30: one-armed (OA) mAb11-1076 (antibody, V domains shown)
VH: B1 VH with R54K, K62D, V97A
VL: B1 VL with R53K, S72T
B31: one-armed (OA) mAb01-9373 (antibody, V domains shown)
VH: B1 VH with R19K, G58I, K62D, M83L
VL: B1 VL with V15A, R18E, Q27K, K45R, E55D, S72T, S77H
B32: one-armed (OA) mAb11-1091 (antibody, V domains shown)
VH: B1 VH with R19K, R54K, K62D, V97A
VL: B1 VL with R53K, E55D, S72T
B33: one-armed (OA) mAb11-1094 (antibody, V domains shown)
VH: B1 VH with R19K, R54K, K62D, V97A
VL: B1 VL with R53K, S72T
B34: one-armed (OA) mAb11-1204 (antibody, V domains shown)
VH: B1 VH
VL: B1 VL with R18E, R53K
B35: one-armed (OA) mAb11-1233 (antibody, V domains shown)
VH: B1 VH with T28K, R54K, K62D, A75E
VL: B1 VL with E55D
B36: one-armed (OA) mAb11-1254 (antibody, V domains shown)
VH: B1 VH with R54K, K62D, A75D
VL: B1 VL with E55D
B37: one-armed (OA) mAb11-1259 (antibody, V domains shown)
VH: B1 VH with R54K, K62D, A75E
VL: B1 VL with S28K, E55D
B38: one-armed (OA) mAb11-1260 (antibody, V domains shown)
VH: B1 VH with R54K, K62D, A75E
VL: B1 VL with S28Q, E55D
B39: one-armed (OA) mAb11-1262 (antibody, V domains shown)
VH: B1 VH with R54K, K62D, A75E
VL: B1 VL with S30Q, E55D
B40: one-armed (OA) mAb11-1266 (antibody, V domains shown)
VH: B1 VH with R54K, K62D, A75E
VL: B1 VL with E55D, R56K
B41: one-armed (OA) mAb11-1268 (antibody, V domains shown)
VH: B1 VH with R54K, K62D, A75E
VL: B1 VL with E55D, S60K
B42: one-armed (OA) mAb01-9696 (antibody, V domains shown)
VH: B1 VH with R19K, H30D, K62D, M83L
VL: B1 VL with V15A, E55D
B43: one-armed (OA) mAb11-1273 (antibody, V domains shown)
VH: B1 VH with R54K, K62D, A75E
VL: B1 VL with E55D, S77E
B44: one-armed (OA) mAb11-1275 (antibody, V domains shown)
VH: B1 VH with R54K, K62D, A75E
VL: B1 VL with E55D, Q79T

Target: human plasma-derived Factor IXa (human, UniProt P00740 47-191; P00740 227-461)
Experiment: cell-based or functional assay

human plasma-derived Factor IXa, sequence (P00740 47-191, chain 1 of 2): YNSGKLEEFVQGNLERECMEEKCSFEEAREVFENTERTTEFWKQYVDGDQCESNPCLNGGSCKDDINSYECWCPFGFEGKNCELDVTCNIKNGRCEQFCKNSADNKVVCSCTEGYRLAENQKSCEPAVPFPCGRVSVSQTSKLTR
human plasma-derived Factor IXa, sequence (P00740 227-461, chain 2 of 2): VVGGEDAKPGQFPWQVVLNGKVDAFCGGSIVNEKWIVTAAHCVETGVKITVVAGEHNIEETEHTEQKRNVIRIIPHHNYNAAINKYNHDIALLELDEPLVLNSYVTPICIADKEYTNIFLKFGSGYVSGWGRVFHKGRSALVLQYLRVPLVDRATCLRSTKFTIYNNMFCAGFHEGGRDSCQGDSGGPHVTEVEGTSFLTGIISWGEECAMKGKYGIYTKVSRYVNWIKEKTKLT

Compared with B1, B2 is lower in “Stimulation Index, FXa generation assay, 800 nM OA antibody” value (from here on “Stimulation Index … 800 nM OA antibody”): 5820 fold for the first, 2860 fold for the second.

Going from B3 to B4, the “Stimulation Index … 800 nM OA antibody” value rises from 1510 fold to 3260 fold.

Compared with B5, B6 is higher in “Stimulation Index … 800 nM OA antibody” value: 3320 fold for the first, 4550 fold for the second.

Going from B7 to B9, the “Stimulation Index … 800 nM OA antibody” value rises from 3270 fold to 3690 fold.

Going from B10 to B11, the “Stimulation Index … 800 nM OA antibody” value falls from 3770 fold to 2820 fold.

Going from B12 to B13, the “Stimulation Index … 800 nM OA antibody” value rises from 1560 fold to 1880 fold.

First: B14
Second: B15
The “Stimulation Index … 800 nM OA antibody” value of the first is higher: 1690 fold for the first, 1610 fold for the second.

Compared with B16, B17 is higher in “Stimulation Index … 800 nM OA antibody” value: 1570 fold for the first, 2680 fold for the second.

First: B18
Second: B19
The “Stimulation Index … 800 nM OA antibody” value of the first is lower: 1820 fold for the first, 2010 fold for the second.

Going from B21 to B22, the “Stimulation Index … 800 nM OA antibody” value falls from 3370 fold to 2860 fold.

Compared with B23, B24 is lower in “Stimulation Index … 800 nM OA antibody” value: 4650 fold for the first, 3650 fold for the second.

First: B25
Second: B26
The “Stimulation Index … 800 nM OA antibody” value of the first is higher: 5750 fold for the first, 5130 fold for the second.

Going from B27 to B28, the “Stimulation Index … 800 nM OA antibody” value rises from 3960 fold to 4320 fold.

Compared with B29, B30 is lower in “Stimulation Index … 800 nM OA antibody” value: 6150 fold for the first, 3590 fold for the second.

Compared with B32, B33 is lower in “Stimulation Index … 800 nM OA antibody” value: 5400 fold for the first, 4080 fold for the second.

Compared with B35, B37 is higher in “Stimulation Index … 800 nM OA antibody” value: 1700 fold for the first, 2000 fold for the second.

Compared with B38, B39 is higher in “Stimulation Index … 800 nM OA antibody” value: 1760 fold for the first, 1950 fold for the second.

Compared with B40, B41 is higher in “Stimulation Index … 800 nM OA antibody” value: 1700 fold for the first, 1800 fold for the second.

Compared with B43, B44 is higher in “Stimulation Index … 800 nM OA antibody” value: 1540 fold for the first, 1840 fold for the second.

First: B8
Second: B20
The “Stimulation Index, FXa generation assay, 1600 nM OA antibody” value (“Stimulation Index … 1600 nM OA antibody” for short) of the first is higher: 8480 fold for the first, 5900 fold for the second.

Compared with B31, B34 is higher in “Stimulation Index … 1600 nM OA antibody” value: 1390 fold for the first, 9100 fold for the second.

B42 was tested, and the “Stimulation Index … 1600 nM OA antibody” value was 5170 fold.

In the case of B36, the “Stimulation Index, FXa generation assay, 760 nM OA antibody” value is reported as 1890 fold.
